Article PMC5327412, “Characterization of the CD177 interaction with the ANCA antigen proteinase 3” (Scientific Reports, 2017)
Read-outs that look alike come from different tables or passages of the source.

T1: recombinant CD177 (UniProt Q8N6Q3 22-408)
T1 construct: CD177, GPI-anchored neutrophil membrane receptor; recombinant soluble form that lacks the C-terminal GPI-anchor domain; secreted via an N-terminal Ig1 secretion signal peptide; Made from plasmid pTT5; also called rCD177; not shown: Fc (human Ig1), C-terminal, cleaved
T1 sequence (looked up): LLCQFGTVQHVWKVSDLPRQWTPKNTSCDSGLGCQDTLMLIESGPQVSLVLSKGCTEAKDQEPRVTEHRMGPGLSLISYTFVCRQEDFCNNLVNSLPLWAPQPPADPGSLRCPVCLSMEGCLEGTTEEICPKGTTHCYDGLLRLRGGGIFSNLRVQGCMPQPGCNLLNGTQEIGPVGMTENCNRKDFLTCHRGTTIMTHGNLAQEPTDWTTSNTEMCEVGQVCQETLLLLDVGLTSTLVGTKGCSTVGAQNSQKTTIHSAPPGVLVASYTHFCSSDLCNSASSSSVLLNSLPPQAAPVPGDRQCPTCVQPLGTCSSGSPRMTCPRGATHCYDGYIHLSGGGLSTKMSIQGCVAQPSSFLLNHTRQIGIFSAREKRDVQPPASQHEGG


Target: T1, recombinant CD177
Test: SPR; CD177 immobilised on a GLH sensor chip by standard amine chemistry, PR3 as soluble analyte; ProteOn XPR36

Kd	Kd (both partners purified)	Molecule
57 nM	–	monomeric PR3 hydrophobic patch mutant (Ile217Ala, Trp218Ala) (enzyme)
4.1 nM	–	recombinant PR3 (enzyme)
–	4.1 nM	neutrophil-derived PR3 (enzyme, UniProt P24158 28-248, looked up, Proteinase 3 (PR3), neutrophil serine protease, purified from neutrophils, proteolytically active; also called nPR3; proteinase 3; source: bought: Athens Research&Technology; neutrophil-derived) IVGGHEAQPHSRPYMASLQMRGNPGSHFCGGTLIHPSFVLTAAHCLRDIPQRLVNVVLGAHNVRTQEPTQQHFSVAQVFLNNYDAENKLNDVLLIQLSSPANLSASVATVQLPQQDQPVPHGTQCLAMGWGRVGAHDPPAQVLQELNVTVVTFFCRPHNICTFVPRRKAGICFGDSGGPLICDGIIQGIDSFVIWGCATRLFPDFFTRVALYVDWIRSTLR
